According to publication PMC8498639, “3D Domain Swapping Dimerization of the Receiver Domain of Cytokinin Receptor CRE1 From Arabidopsis thaliana and Medicago truncatula” (Frontiers in Plant Science, 2021):
Read-outs that look alike come from different tables or passages of the source.

Assays:
[1] = target: MtHPt1 (histidine-containing phosphotransfer protein 1 of Medicago truncatula) with N-terminal His6-MBP fusion (Medicago truncatula); assay: BLI; His6-MBP-MtHPt1 (104 nM) immobilised on Ni-NTA sensors; MtCRE1-IC at 2.5, 5, 10, 20 nM; SEC buffer (25 mM HEPES pH 7.5, 50 mM NaCl, 100 mM KCl, 1 mM TCEP) with 10% Kinetic Buffer, with 0.5 mM ATP and 2 mM MgCl2; 25°C; global 1:1 fit
MtHPt1 (histidine-containing phosphotransfer protein 1 of Medicago truncatula) with N-terminal His6-MBP fusion (Medicago truncatula), sequence (main, as listed by the source): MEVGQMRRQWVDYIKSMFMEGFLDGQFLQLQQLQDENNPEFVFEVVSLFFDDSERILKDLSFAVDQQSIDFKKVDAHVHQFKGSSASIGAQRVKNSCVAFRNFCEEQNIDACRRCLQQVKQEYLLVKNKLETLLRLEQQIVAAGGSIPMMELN

[2] = target: MtHPt1 (histidine-containing phosphotransfer protein 1 of Medicago truncatula) with N-terminal His6-MBP fusion (Medicago truncatula); assay: as above; remark: listed apart in the source
[3] = target: the molecule itself; assay: crystal structure; MtCRE1-REC-Ca, 2.5 Å, space group P3(1)21, one subunit in the asymmetric unit, dimer by a crystallographic twofold; Ca2+ bound
[4] = target: the molecule itself; assay: crystal structure; AtCRE1-REC-K, 2.15 Å, space group P2(1)2(1)2, two subunits in the asymmetric unit; K+ bound
[5] = target: the molecule itself; assay: native gel or EMSA; Native-PAGE of AtCRE1-REC compared with monomeric PR-10 proteins of similar calculated pI

“MtCRE1-IC (intracellular domain of Medicago truncatula CRE1, Ile352-Ser1003) (from UniProt G7LCC3 352-1003) (domain or fragment)” was tested, and the Kd [1] was 12 to 54 nM and the Kd [2] was 12 nM.

B1: MtCRE1-REC (receiver domain of cytokinin receptor CRE1 from Medicago truncatula) (domain or fragment, UniProt G7LCC3 856-994, looked up)
chain: SLLFGKKILVVDDNVVNRRVAAGALKNFGADVKCADSGKAALEMLQFPHKFDACFMDIQMPEMDGFEATRRIREMERTANEETNSECGERKSEFHLPILAMTADVIHATYEECLKCGMDGYVSKPFEEENLYQAVAKFF
notes: Made by proteolysis, not cloned as a domain; residues 936-948 are missing in the map; also called MtCRE1-REC-Ca; source: recombinant MtCRE1-IC from E. coli, limited proteolysis with thermolysin, purified (Superdex 75)
B1: binds [3].

B2: AtCRE1-REC, C-terminally truncated receiver domain Leu918-Phe1048 (Arabidopsis thaliana CRE1/AHK4) (domain or fragment)
chain: SNALLTGKKILVVDDNIVNRRVAAGALKKFGAEVVCAESGQVALGLLQIPHTFDACFMDIQMPQMDGFEATRQIRMMEKETKEKTNLEWHLPILAMTADVIHATYEECLKSGMDGYVSKPFEEENLYKSVAKSF
notes: cloning linker at the N-terminus (vector pMCSG68); Ser-Asn-Ala is printed for the longer construct from the same vector, Asn916-Ala917 of the linker are named for this one; AHK4/CRE1/WOL, Arabidopsis thaliana, receiver domain with a 9-residue C-terminal truncation, Leu918-Phe1048; numbers count on: UniProt Q9C5U0-2; also called AtCRE1-REC-K; source: Magic E. coli strain, purified (Ni-NTA, TEV, …)
B2: binds [4].

B3: AtCRE1-REC, complete receiver domain Leu918-Ser1057 (Arabidopsis thaliana CRE1/AHK4) (domain or fragment)
chain: SNALLTGKKILVVDDNIVNRRVAAGALKKFGAEVVCAESGQVALGLLQIPHTFDACFMDIQMPQMDGFEATRQIRMMEKETKEKTNLEWHLPILAMTADVIHATYEECLKSGMDGYVSKPFEEENLYKSVAKSFKPNPISPSS
notes: Ser-Asn-Ala cloning artifact at the N-terminus (vector pMCSG68); AHK4/CRE1/WOL, Arabidopsis thaliana, receiver domain Leu918-Ser1057; numbers count on: UniProt Q9C5U0-2; also called AtCRE1-REC-Mg; source: E. coli BL21 Gold, purified (Ni-NTA, TEV, Superdex75)
With B3 the “stoichiometry N” value [5] was 2.
